From paper PMC5872055, “A Low-Cost Inkjet-Printed Aptamer-Based Electrochemical Biosensor for the Selective Detection of Lysozyme” come the findings set out here.

The series has as its target lysozyme (chicken (egg white), UniProt P00698 19-147). Nature of the series: electrochemical impedance spectroscopy (Rct decrease); 0-20 ug/mL lysozyme, 15 min; sensor LOD 90 ng/mL (not a Kd); EIS: proteins in 50 mM phosphate buffer (PBS) pH 7.4, 15 min incubation, rinse with PBS and DI water, then ferro-/ferricyanide read-out; SWV: 10 mM PBS; temperature not stated. The settings on record: protein: commercial.

lysozyme, sequence (P00698 19-147): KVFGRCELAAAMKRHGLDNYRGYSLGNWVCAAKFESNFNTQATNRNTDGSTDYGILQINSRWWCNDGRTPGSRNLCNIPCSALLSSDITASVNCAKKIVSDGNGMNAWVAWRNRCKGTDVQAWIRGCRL

B1: anti-lysozyme aptamer (30-mer) (ssDNA)
DNA: ATCAGGGCTAAAGAGTGCAGAGTTACTTAG
In the case of B1, the binding result is “binds”.
